Reference: the RNAGym collection of RNA variant scans (doi:10.7554/elife.90254)

B1: LINE1-full (parent)
chain: UACGUAGGUGGUUUUCCCCUGAUAGUGCUAAGGGGGCCUGGAAGUUUGGACUGGGCAGAGCUCAACACAGCGUGGCAAAGUGGCUGUGGCUAGACUGCCUCUCUGGAUUCCUCGUCACUCAGCAGGGCAUCUCUGAGAGAAAUGCC

Variants of: B1
Test: self-cleavage, relative activity (ratio to wild type); higher = more cleavage; in vitro, sequencing; the parent is a self-cleaving ribozyme

| Variant | self-cleavage |
| --- | --- |
| A64U C116A | 0.37 |
| G89A U109C | 0.04 |
| U26A U52A | 0.81 |
| C37G A129G | 0.9 |
| A24U A69U | 0.09 |
| A129G U130C | 1.69 |
| A129G U130A | 1.19 |
| A57U A69G | 0.08 |
| U12C G122U | 1.04 |
| G88A U96A | 0.03 |
| U39A U52A | 1.4 |
| U39A C111A | 1.55 |
| A64U G127C | 0.6 |
| G4C U15C | 1.18 |
| G4C A22G | 0.99 |
| G126A A141G | 1.34 |
| U104A C113A | 0.91 |
| U62C G72U | 0.03 |
| G126U U143C | 1.33 |
| U13A A92G | 0.12 |
| U87A U130C | 0.08 |
| C66U U134C | 0.06 |
| C3U U119G | 0.98 |
| A31U U85G | 0.15 |

| Variant | self-cleavage |
| --- | --- |
| C19U U134C | 1.09 |
| C3G A31U | 0.98 |
| A57U C61U | 0.03 |
| U20A U132C | 1.49 |
| U85A G88A | 0.23 |
| A24G U29A | 1.3 |
| U52C U109A | 1.6 |
| A31G A117G | 1.84 |
| A69U C146U | 0.08 |
| U12C A141U | 0.87 |
| U81C A117G | 1.21 |
| A77U A129C | 1.28 |
| A64G G88C | 0.04 |
| U14A A141G | 1 |
| U108C A117C | 2.24 |
| G41A U108C | 1.23 |
| U87A U104A | 0.06 |
| U12G U130A | 1.65 |
| A2G U102C | 1.2 |
| A43U A138U | 1.14 |
| G27C A117G | 0.95 |
| U14C C113A | 1.19 |
| U5C A67G | 0.67 |
| U20A U23C | 0.83 |

| Variant | self-cleavage |
| --- | --- |
| A57U U104A | 0.06 |
| A78U A140G | 1.96 |
| G4A U81C | 1.44 |
| U12C A92U | 0.56 |
| A65G G135A | 0.1 |
| G41U A129G | 1.03 |
| G41U A129C | 1.02 |
| A77G U102C | 1.96 |
| U1A U109A | 1.56 |
| A6G U119C | 0.73 |
| U81A C133U | 1.95 |
| A92U A140G | 0.53 |
| U85C U119A | 0.25 |
| U85C A121G | 0.25 |
| U85A C116A | 0 |
| G82U U115C | 0.84 |
| A30G U115A | 1.17 |
| C19U A79U | 1.47 |
| C19U A79G | 0.97 |
| U12G C19U | 1.09 |
| U14C C90U | 0.01 |
| U47C G93U | 0.04 |
| A94G G127U | 0.09 |
| A79U C110A | 1.64 |

| Variant | self-cleavage |
| --- | --- |
| U46C G89A | 0.04 |
| C17U U112C | 1.49 |
| C103U | 1.23 |
| C66U A136G | 0.04 |
| C38U G144A | 1.36 |
| U26A U102G | 0.38 |
| A24U U45C | 1.19 |
| U13A U115C | 1.56 |
| G33A A140G | 1.29 |
| U39C U45C | 1.54 |
| U15A G58A | 0.09 |
| A64C A142G | 0.25 |
| U108C C123U | 2.22 |
| G35A A92C | 0.05 |
| C51A U73G | 0.69 |
| C63U C90U | 0 |
| A78G G97U | 0.03 |
| G49A U81A | 1.95 |
| A43U U130A | 1.67 |
| G126A A138U | 1.33 |
| U47C G88A | 0.07 |
| G75A U119C | 1.5 |
| C17U A141G | 0 |
| G33A U62A | 0.01 |

| Variant | self-cleavage |
| --- | --- |
| C68U A124U | 0.28 |
| U62C A79U | 0.03 |
| U9G U130A | 0.78 |
| A138C A140G | 0.07 |
| G48A A141G | 1.42 |
| A42C U91C | 0.4 |
| A78G C116A | 0.87 |
| U73A A138U | 1.72 |
| A64G A141G | 0.21 |
| G72A C120U | 1.31 |
| U102C U143A | 1.36 |
| U46G A140G | 1.78 |
| G72A U85A | 0.07 |
| G126A | 1.31 |
| U12A U108C | 1.28 |
| G36A A141G | 1.38 |
| C76U U108C | 2.53 |
| U45C C84A | 0.09 |
| U1A U132A | 1.35 |
| C3U A117C | 0.75 |
| C66U G75A | 0.04 |
| A57G U112C | 0.68 |
| A57U C66G | 0.05 |
| A22G A67G | 0.63 |

| Variant | self-cleavage |
| --- | --- |
| C99A U119C | 0.82 |
| A50G A138G | 1.2 |
| U96C C113G | 0.11 |
| U9C G41A | 1.06 |
| U13C U81C | 1.05 |
| A141G G144A | 1.28 |
| G72A U143C | 1.65 |
| U9A U46C | 0.98 |
| C95U U108C | 0.42 |
| A31G U73C | 0.77 |
| G70A A107G | 0.08 |
| U26A C128U | 0.72 |
| C63U U130C | 0.39 |
| U96A C113U | 0.06 |
| C19A U112C | 1.55 |
| C19A U112G | 0.85 |
| C123U A136G | 1.49 |
| A67U A136U | 0.12 |
| G41C U104G | 1.58 |
| C116A A121U | 1.21 |
| U20C A24U | 1.37 |
| A43G A140U | 1.19 |
| A57U G127A | 0.1 |
| C76U A142C | 0.92 |

| Variant | self-cleavage |
| --- | --- |
| G74U A117U | 1.79 |
| U13C C128A | 0.79 |
| A22U U29C | 1.24 |
| A31G A77U | 0.86 |
| A77G A92U | 1.11 |
| U39A A142G | 1.53 |
| A22G C113G | 0.82 |
| U9G C56U | 0.24 |
| A78G U134C | 1.49 |
| A22G G70A | 0.18 |
| A64G C84U | 0.1 |
| C38U U112C | 1.35 |
| U1C U45C | 0.91 |
| A124U C133A | 1.59 |
| U112C A136U | 1.84 |
| U47A G125A | 1.11 |
| G127U U130C | 1.77 |
| C90G A121U | 0.02 |
| A50G A92U | 0.37 |
| G54A U100A | 0.16 |
| U26G U119C | 0.98 |
| G48A G49U | 0.57 |
| A42U C66A | 0.03 |
